This assay deals with MCP-1 (known wild type human MCP-1, commercial, R&D #279-MC) (human) (UniProt P13500). Kind of assay: cell-based or functional assay.

Bounds are passed on as bounds.

Sequence of UniProt P13500 (P13500 24-99): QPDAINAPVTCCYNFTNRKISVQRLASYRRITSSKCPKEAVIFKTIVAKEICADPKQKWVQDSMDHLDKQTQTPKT

Turning to “MCP-1-65-Fc variant (MCP-1 splice variant MCP-1-65 fused to mutated N297A human IgG1 Fc) (Fc fusion)”, the inhibition of MCP-1-induced THP-1 cell migration (transwell, cells counted by FACS), IC50 turned out to be 0.4 nM and the inhibition of MCP-1-induced THP-1 cell migration (transwell, cells counted by FACS), percent inhibition was < 90%.
